Measurements from patent US20110312897.

Tests used:
[1] = target: T1, H3 15-31 peptide, K18 acetyl
T1 chain: APRKQLATKAARKSAPA

[2] = target: T2, H3 15-31 peptide, K27me2
T2 chain: APRKQLATKAARKSAPA

[3] = target: T3, H3 15-31 peptide, K23 acetyl
T3 chain: APRKQLATKAARKSAPA

[4] = target: T4, H3 15-31 peptide, K18ac+K23ac
T4 chain: APRKQLATKAARKSAPA

[5] = target: rH3-HIS+K27me2
[6] = target: rH3 pan-acetylated with acetic anhydride
[7] = target: C-terminally 6xHIS tagged, full-length recombinant histone H3

B1: recombinant mouse Cathepsin L (R&D Systems, # 1515-CY-010) (protein)
chain: TPKFDQTFSAEWHQWKSTHRRLYGTNEEEWRRAIWEKNMRMIQLHNGEYSNGQHGFSMEMNAFGDMTNEEFRQVVNGYRHQKHKKGRLFQEPLMLKIPKSVDWREKGCVTPVKNQGQCGSCWAFSASGCLEGQMFLKTGKLISLSEQNLVDCSHAQGNQGCNGGLMDFAFQYIKENGGLDSEESYPYEAKDGSCKYRAEFAVANDTGFVDIPQQEKALMKAVATVGPISVAMDASHPSLQFYSSGIYYEPNCSSKNLDHGVLLVGYGYEGTDSNKNKYWLVKNSWGSEWGMEGYIKIAKDRDNHCGLATAASYPVVN
ELISA with the H3cs.1 antibody of the cleavage product, against the unmodified H3 15-31 peptide [1]: acetylation at K18 (blue) also increases this activity | ELISA with the H3cs.1 antibody of the cleavage product, against the unmodified H3 15-31 peptide [2]: K27me2 (magenta) strongly increases the ability of Cathepsin L to cleave at H3cs.1 as compared to the matched unmodified H3 15-31 peptide | ELISA with the H3cs.1 antibody of the cleavage product [3]: the K23ac peptide shows very little cleavage activity at H3cs.1, both alone (green) and in combination with K18ac (black) | ELISA with the H3cs.1 antibody of the cleavage product [4]: the K23ac peptide shows very little cleavage activity at H3cs.1, both alone (green) and in combination with K18ac (black) | H3 cleavage assay, immunoblot (substrate 2 against unmodified substrate 1) [5]: K27me2 increases H3 cleavage | H3 cleavage assay, immunoblot (substrate 3 against unmodified substrate 1) [6]: the acetylation of lysine residues greatly reduced cleavage of H3 by rCathepsin L at both pH 7.5 and 5.5 | H3 cleavage assay (immunoblot with HIS-HRP and H3.cs1 antibodies; mass spectrometry) [7]: recombinant mouse Cathepsin L was able to cleave recombinant histone H3 at both pH 5.5 and pH 7.4 | H3 cleavage assay with pre-activated enzyme, immunoblot with HIS and H3.cs1 antibodies [7]: pre-activated Cathepsin L cleaves rH3-HIS robustly and produces a pattern that is similar to that observed in vivo
